Data on 5 molecules can be found in patent publication US20230304010A1, “COMPOSITIONS AND METHODS FOR TREATING VIRAL INFECTIONS” (priority 2020, published 2023).

Assay [1] concerns the target ACE2, Q9BYF1. Nature of the assay: inhibitor screening kit; ACE2:SARS-CoV-2 Spike (Example 4 assay).
The target in assay [2] is ACE2, Q9BYF1. Nature of the assay: inhibitor screening kit; SARS-CoV-2 Spike:ACE2 (Example 3 assay).
For assay [3], the target named is SARS-CoV-2 Spike-Fc, Alpha (B1.1.7/United Kingdom) variant (SARS-CoV-2), P0DTC2.
The target in assay [4] is SARS-CoV-2 Spike-Fc, Beta (B1.351/South Africa) variant (SARS-CoV-2), P0DTC2.
The target of assay [5] is SARS-CoV-2 Spike-Fc, Delta (B1 617 2/India) variant (SARS-CoV-2), P0DTC2.
Assay [6] has as its target SARS-CoV-2 Spike-Fc, Epsilon (B1429) variant (SARS-CoV-2), P0DTC2.
The target in assay [7] is SARS-CoV-2 Spike-Fc, Gamma (P1/Brazil) variant (SARS-CoV-2), P0DTC2.

Chain of ACE2, Q9BYF1 (Q9BYF1 18-740 limits assumed): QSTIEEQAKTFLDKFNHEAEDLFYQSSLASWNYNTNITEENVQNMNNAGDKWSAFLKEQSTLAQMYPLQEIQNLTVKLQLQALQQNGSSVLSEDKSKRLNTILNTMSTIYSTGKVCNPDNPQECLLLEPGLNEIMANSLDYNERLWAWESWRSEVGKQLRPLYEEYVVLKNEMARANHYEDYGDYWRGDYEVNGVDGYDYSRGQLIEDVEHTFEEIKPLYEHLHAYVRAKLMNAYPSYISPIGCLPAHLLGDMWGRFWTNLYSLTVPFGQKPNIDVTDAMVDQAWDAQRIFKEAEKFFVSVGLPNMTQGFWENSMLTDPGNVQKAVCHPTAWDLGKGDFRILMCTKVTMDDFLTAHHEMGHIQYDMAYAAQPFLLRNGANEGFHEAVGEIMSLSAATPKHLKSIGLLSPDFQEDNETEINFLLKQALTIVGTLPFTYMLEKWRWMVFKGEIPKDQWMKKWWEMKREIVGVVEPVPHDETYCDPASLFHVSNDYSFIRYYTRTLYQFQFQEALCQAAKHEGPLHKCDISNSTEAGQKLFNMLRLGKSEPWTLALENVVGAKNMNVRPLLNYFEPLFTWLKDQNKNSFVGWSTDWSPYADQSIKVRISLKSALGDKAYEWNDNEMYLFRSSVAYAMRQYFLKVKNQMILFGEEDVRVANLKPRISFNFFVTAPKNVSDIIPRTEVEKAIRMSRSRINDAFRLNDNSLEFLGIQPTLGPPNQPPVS

B1: seq14 (LNCOV-12) (peptide)
peptide: GNYNYLYRLLWRALWRLWRSLWRLLWK
modifications: not checked
As to B1, the IC50 (in general, the concentration that gives 50% inhibition) in the assay with ACE2, Q9BYF1 [1] was over 10000 nM; with ACE2, Q9BYF1 [2], over 10000 nM.

B2: Seq18 (LNCOV-16) (peptide)
peptide: VEGFNCYFLWRALWRLWRSLWRLLWK
modifications: not checked
Regarding B2, the IC50 with ACE2, Q9BYF1 [1] was over 10000 nM; with ACE2, Q9BYF1 [2], over 10000 nM.

B3: Seq13 (LNCOV-11) (peptide)
peptide: KVGGNYNYKLWRALWRLWRSLWRLLWK
modifications: not checked
Regarding B3, the half-inhibitory concentration (IC50) with ACE2, Q9BYF1 [1] is over 10000 nM; with ACE2, Q9BYF1 [2] it was over 10000 nM.

B4: Seq28 (LNCOV-20) (peptide)
peptide: KTFLDKFNHEAEDLFPGPKWSAFLKEQSTLAQMYG
modifications: not checked
Turning to B4, the IC50 in assay [3] came to 24.6 nM; in assay [4], 31.5 nM; in assay [5] it was 29.2 nM; in assay [6], 28.8 nM; in assay [7], 41.7 nM.

B5: Seq33 (LNCOV-18) (peptide)
peptide: EQAKTFLDKFNHEAEDLFLWRALWRLWRSLWRLLWK
modifications: not checked
B5: the IC50 in assay [3] turned out to be 17.8 nM; in assay [4], 28.8 nM; in assay [5] it was 25.7 nM; in assay [6], 31.4 nM; in assay [7], 20.2 nM.
